Measurements as given in patent US5210024A, “Isolation of strains of Saccharomyces cerevisiae having altered α-acetyltransferase activity” (priority 1991, dated 1993).
Ends that are not written are not given here.

What was measured:
[1] = target: T1, N^α -AT (AAA1 N^α -acetyltransferase) (Saccharomyces cerevisiae, UniProt P07347+P12945); assay: N^α-acetylation of synthetic peptides by AAA1 N^α-acetyltransferase ([3H]acetyl coenzyme A incorporation); type: biochemical; design: concentration or dose not given beside the values
T1 construct: isolates N^α -acetyltransferase by treating yeast cells with lyticase; endogenous in cells; host or cells: Saccharomyces cerevisiae cells (native enzyme)
T1 sequence (P12945 2-854): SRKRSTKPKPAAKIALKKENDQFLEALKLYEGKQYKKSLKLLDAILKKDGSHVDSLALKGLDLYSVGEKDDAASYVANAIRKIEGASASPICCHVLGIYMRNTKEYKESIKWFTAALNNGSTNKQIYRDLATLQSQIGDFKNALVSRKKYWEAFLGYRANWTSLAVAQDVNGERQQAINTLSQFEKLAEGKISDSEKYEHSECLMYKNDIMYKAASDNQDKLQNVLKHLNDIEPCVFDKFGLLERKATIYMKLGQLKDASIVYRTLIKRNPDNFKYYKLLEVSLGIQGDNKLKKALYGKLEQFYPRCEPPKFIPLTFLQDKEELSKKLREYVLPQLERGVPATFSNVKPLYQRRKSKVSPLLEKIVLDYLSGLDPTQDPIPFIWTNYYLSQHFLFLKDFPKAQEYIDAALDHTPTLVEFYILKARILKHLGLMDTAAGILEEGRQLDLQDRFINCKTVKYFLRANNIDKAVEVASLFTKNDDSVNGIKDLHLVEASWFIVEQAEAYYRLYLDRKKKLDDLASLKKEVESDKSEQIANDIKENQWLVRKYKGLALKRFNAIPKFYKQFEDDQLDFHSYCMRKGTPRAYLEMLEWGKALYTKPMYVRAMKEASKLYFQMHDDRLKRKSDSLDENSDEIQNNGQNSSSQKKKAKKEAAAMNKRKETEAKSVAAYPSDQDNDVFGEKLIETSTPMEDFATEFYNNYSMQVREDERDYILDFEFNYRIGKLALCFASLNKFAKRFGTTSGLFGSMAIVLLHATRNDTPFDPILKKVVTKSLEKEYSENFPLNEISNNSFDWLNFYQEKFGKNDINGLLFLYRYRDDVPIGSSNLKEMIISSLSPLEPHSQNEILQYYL
T1 sequence (P07347 1-238): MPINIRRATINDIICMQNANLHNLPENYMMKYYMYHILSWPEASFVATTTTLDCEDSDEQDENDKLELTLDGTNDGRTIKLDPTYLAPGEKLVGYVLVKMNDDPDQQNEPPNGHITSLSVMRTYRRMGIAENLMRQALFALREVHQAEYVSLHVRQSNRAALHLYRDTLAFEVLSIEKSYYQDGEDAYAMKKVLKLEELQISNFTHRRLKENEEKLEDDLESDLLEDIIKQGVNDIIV
Experimental: (§1) Aliquots of the lysate were added to 1.5 ml Eppendorf tubes containing a reaction mixture of 50 mM HEPES, pH 7.4, 150 mM KCl, 1 mM DTT, 25 μM[^3 H]acetyl coenzyme A (0.5 μCi) and 50 μM ACTH (1-24) with an adjusted final volume of 100 μl. The assay mixture was incubated at 30 C for 30 min. The reaction was stopped by adding 0.5 M acetic acid and chilled in an ice bath. […] The radioactivity in the control represented acetylation of endogenous compounds is subtracted from each sample determination. One unit of activity is defined as 1 pmol of acetyl residues incorporated into ACTH (1-24) under standard assay conditions.
(§2) This second N^α -acetyltransferase is a methionine N^α -acetyltransferase activity, and is designated as "M-N^α -AT." This second N^α -acetyltransferase is the subject of U.S. patent application of John A. Smith and Fang-Jen S. Lee, filed Oct. […] In order to compare the relative specificity and activity of the AAA1 N^α -acetyltransferase ("N^α -AT") of the present invention with the methionine N^α -acetyltransferase activity (M-N^α -AT) of U.S. patent application of John A. Smith and Fang-Jen S. Lee, filed Oct. […] These peptides were assessed for their ability to serve as substrates for the two enzymes. In Table 2, the effect of the amino terminal amino acid on activity is investigated; in Table 3, the effect of the penultimate amino terminal amino acid on activity is investigated.

[2] = target: T2, M-N^α -AT (methionine N^α -acetyltransferase) (Saccharomyces cerevisiae, UniProt Q06504); assay: N^α-acetylation of synthetic peptides by methionine N^α-acetyltransferase; type: biochemical; design: concentration or dose not given beside the values
T2 construct: endogenous in cells; host or cells: Saccharomyces cerevisiae aaa1 (AAA1-null) mutant
T2 sequence (Q06504 1-195): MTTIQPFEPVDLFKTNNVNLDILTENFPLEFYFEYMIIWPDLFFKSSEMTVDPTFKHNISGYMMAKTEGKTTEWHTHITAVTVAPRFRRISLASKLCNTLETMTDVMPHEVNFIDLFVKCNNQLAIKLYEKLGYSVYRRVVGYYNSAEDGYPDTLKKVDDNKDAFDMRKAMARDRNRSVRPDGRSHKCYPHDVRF
T2 sequence (Q12387 2-796 partner limits assumed): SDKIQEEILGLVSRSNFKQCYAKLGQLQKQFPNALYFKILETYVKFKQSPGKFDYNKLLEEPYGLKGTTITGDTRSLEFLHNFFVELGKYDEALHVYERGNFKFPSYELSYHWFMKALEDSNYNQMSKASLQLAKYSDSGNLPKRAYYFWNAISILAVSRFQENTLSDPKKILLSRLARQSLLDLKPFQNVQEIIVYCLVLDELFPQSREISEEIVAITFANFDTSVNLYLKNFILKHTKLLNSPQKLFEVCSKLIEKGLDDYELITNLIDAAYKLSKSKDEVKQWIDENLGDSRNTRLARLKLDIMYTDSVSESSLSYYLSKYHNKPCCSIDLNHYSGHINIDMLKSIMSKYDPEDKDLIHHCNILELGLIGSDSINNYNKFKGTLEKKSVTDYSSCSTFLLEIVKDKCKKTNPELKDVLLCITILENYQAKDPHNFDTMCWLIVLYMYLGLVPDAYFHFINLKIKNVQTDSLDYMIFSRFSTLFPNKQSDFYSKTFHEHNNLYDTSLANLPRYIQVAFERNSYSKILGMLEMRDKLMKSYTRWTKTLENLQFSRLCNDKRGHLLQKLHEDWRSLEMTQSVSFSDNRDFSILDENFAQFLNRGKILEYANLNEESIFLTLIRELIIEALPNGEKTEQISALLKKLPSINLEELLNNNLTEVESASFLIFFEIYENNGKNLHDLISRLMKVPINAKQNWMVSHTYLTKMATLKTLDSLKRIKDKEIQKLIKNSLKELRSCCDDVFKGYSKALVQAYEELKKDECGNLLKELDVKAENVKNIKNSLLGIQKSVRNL
Experimental: as §1, §2

[3] = Table 2: relative activity for N^α-acetylation of synthetic peptide substrate, influence of the amino terminal residue
[4] = Table 3: relative activity for N^α-acetylation of synthetic peptide substrate, influence of the penultimate amino terminal residue

Row | Substance | Activity (%) (mean activity ± S.D.) N^α -AT [1, 3] | Activity (%) (mean activity ± S.D.) M-N^α -AT [2, 3] | Activity (%) (mean activity ± S.D.) N^α -AT [1, 4] | Activity (%) (mean activity ± S.D.) M-N^α -AT [2, 4]
1 | AIPETQKGVIFYESHGKLEYKDIP (AIPETQKGVIFYESHGKLEYKDIP) | 0% | 0% |  | 
2 | CIPETQKGVIFYESHGKLEYKDIP (CIPETQKGVIFYESHGKLEYKDIP) | 0% | 0% |  | 
3 | DIPETQKGVIFYESHGKLEYKDIP (DIPETQKGVIFYESHGKLEYKDIP) | 0% | 0% |  | 
4 | EIPETQKGVIFYESHGKLEYKDIP (EIPETQKGVIFYESHGKLEYKDIP) | 0% | 0% |  | 
5 | FIPETQKGVIFYESHGKLEYKDIP (FIPETQKGVIFYESHGKLEYKDIP) | 9 ± 2% | 0% |  | 
6 | GIPETQKGVIFYESHGKLEYKDIP (GIPETQKGVIFYESHGKLEYKDIP) | 23 ± 3% | 0% |  | 
7 | HIPETQKGVIFYESHGKLEYKDIP (HIPETQKGVIFYESHGKLEYKDIP; also: tritium label) | 19 ± 2% | 0% |  | 
8 | IIPETQKGVIFYESHGKLEYKDIP (IIPETQKGVIFYESHGKLEYKDIP) | 0% | 0% |  | 
9 | KIPETQKGVIFYESHGKLEYKDIP (KIPETQKGVIFYESHGKLEYKDIP) | 0% | 0% |  | 
10 | LIPETQKGVIFYESHGKLEYKDIP (LIPETQKGVIFYESHGKLEYKDIP) | 0% | 0% |  | 
11 | MIPETQKGVIFYESHGKLEYKDIP (MIPETQKGVIFYESHGKLEYKDIP) | 15 ± 2% | 0% |  | 
12 | NIPETQKGVIFYESHGKLEYKDIP (NIPETQKGVIFYESHGKLEYKDIP) | 0% | 0% |  | 
13 | PIPETQKGVIFYESHGKLEYKDIP (PIPETQKGVIFYESHGKLEYKDIP) | 70 ± 4% | 0% |  | 
14 | QIPETQKGVIFYESHGKLEYKDIP (QIPETQKGVIFYESHGKLEYKDIP) | 0% | 0% |  | 
15 | RIPETQKGVIFYESHGKLEYKDIP (RIPETQKGVIFYESHGKLEYKDIP) | 0% | 0% |  | 
16 | SAPETQKGVIFYESHGKLEYKDIP (SAPETQKGVIFYESHGKLEYKDIP) |  |  | 168 ± 8% | 0%
17 | SCPETQKGVIFYESHGKLEYKDIP (SCPETQKGVIFYESHGKLEYKDIP) |  |  | 136 ± 7% | 0%
18 | SDPETQKGVIFYESHGKLEYKDIP (SDPETQKGVIFYESHGKLEYKDIP) |  |  | 171 ± 9% | 0%
19 | SEPETQKGVIFYESHGKLEYKDIP (SEPETQKGVIFYESHGKLEYKDIP) |  |  | 121 ± 6% | 0%
20 | SFPETQKGVIFYESHGKLEYKDIP (SFPETQKGVIFYESHGKLEYKDIP) |  |  | 118 ± 6% | 0%
21 | SGPETQKGVIFYESHGKLEYKDIP (SGPETQKGVIFYESHGKLEYKDIP) |  |  | 84 ± 5% | 0%
22 | SHPETQKGVIFYESHGKLEYKDIP (SHPETQKGVIFYESHGKLEYKDIP) |  |  | 125 ± 6% | 0%
23 | SKPETQKGVIFYESHGKLEYKDIP (SKPETQKGVIFYESHGKLEYKDIP) |  |  | 151 ± 6% | 0%
24 | SLPETQKGVIFYESHGKLEYKDIP (SLPETQKGVIFYESHGKLEYKDIP) |  |  | 126 ± 5% | 0%
25 | SMPETQKGVIFYESHGKLEYKDIP (SMPETQKGVIFYESHGKLEYKDIP) |  |  | 140 ± 7% | 0%
